Where two headings read alike, the source gives them in different places.
Legend:
[1] = target: T1, recombinant soluble 1968 H3 HA (A/Aichi/2/1968) (Influenza A virus A/Aichi/2/1968 (H3N2), UniProt P03437 17-530); test: ELISA, recombinant mAb
[2] = target: T1, recombinant soluble 1968 H3 HA …; test: ELISA, supernate
[3] = target: HA of A/USSR/92/1977 (H1N1) virus (Influenza A virus (H1N1)); test: cell-based or functional assay
[4] = target: HA of A/swine/Iowa/15/1930 (H1N1) virus (Influenza A virus (H1N1)); test: cell-based or functional assay
[5] = target: HA of A/Brisbane/59/2007 (H1N1) virus (Influenza A virus (H1N1)); test: cell-based or functional assay
[6] = target: HA of A/California/04/2009 (H1N1) virus (Influenza A virus (H1N1)); test: cell-based or functional assay
[7] = target: HA of A/Weiss/1943 (H1N1) virus (Influenza A virus (H1N1)); test: cell-based or functional assay
[8] = target: HA of A/New Jersey/11/1976 (H1N1) virus (Influenza A virus (H1N1)); test: cell-based or functional assay
[9] = target: HA of A/L3/1947 (H1N1) virus (Influenza A virus (H1N1)); test: cell-based or functional assay
[10] = target: HA of A/New Caledonia/20/1999 (H1N1) virus (Influenza A virus (H1N1)); test: cell-based or functional assay
[11] = target: HA of A/South Carolina/1/1918 (H1N1), wild type, on VLP (Influenza A virus A/South …, UniProt Q9WFX3 18-566); test: cell-based or functional assay
[12] = target: T1, recombinant soluble 1968 H3 HA …; test: ELISA, unconcentrated supernate
[13] = target: T1, recombinant soluble 1968 H3 HA …; test: ELISA, supernate; remark: listed apart in the source
[14] = target: T2, recombinant soluble trimeric 1918 H1 HA (A/South Carolina/1/1918, wild type) (Influenza A virus A/South …, UniProt Q9WFX3 18-529); test: ELISA, supernate
[15] = target: T2, recombinant soluble trimeric 1918 H1 HA …; test: ELISA, supernate; remark: listed apart in the source
[16] = target: T1, recombinant soluble 1968 H3 HA …; test: ELISA, supernate; remark: listed apart in the source
[17] = target: T2, recombinant soluble trimeric 1918 H1 HA …; test: ELISA, supernate; remark: listed apart in the source

B1: mAb 3N6 (recombinant) (antibody, V domains shown)
VH: QVQLQESGPGLVKPSETLSLTCSVSGGSINYYYWSWIRQPPGKGLECIGYISDTGRTYYNPSLRSRVTISVDTSKNQFSLNLTSMTAADTAVYYCARDPTGSRQKNAFDMWGQGTMVTVS
VL: AIQMTQSPSSLSASVGDRVTITCRASQNIRSYLNWYQQKPGKAPNLLIYGTTSLESGVPSRFSGSGSGTDFTLTISSLQPEDFATYYCQQSYHTPQTFGQGTKVEIKR
OD [1]: 0.069 OD

B2: mAb 10E15 (antibody, V domains shown)
VH: EVQLLESGGGVVQPGRSLRLSCAASGFTFRTYGMHWVRQAPGKGLEWVAVISHDGNLKYYGGSVKGRFTISRDNSKNALYLQMNSLRVDDTALYYCARGIGITDAFDIRGQGTMVVVS
VL: QSVLTQPPSVSAAPGQKVTISCSGSSSNIGKNYVSWYQQLPGTAPKLLIYDNDKRPSGIPDRFSGSKSGTSATLGITGLQTGDEADYHCGAWDSSLNGGVFGGGTKVTVLG
OD [2]: 0.074 OD

B3: mAb 5J8 (antibody, V domains shown)
VH: EVQLVESGPGLVKPSDILSLTCAVSGYSISSNYYWGWIRQPPGKGLEWIGSIYHSGSTYYKPSLESRLGISVDTSKNQFSLKLSFVSAADTAVYYCARHVRSGYPDTAYYFDKWGQGTLVTVS
VL: SYVLTQPPSVSVAPGETARISCGGNNIGTKVLHWYQQTPGQAPVLVVYDDSDRPSGIPERFSGSNSGNTATLTISRVEVGDEADYYCQVWDISTDQAVFGGGTKLTVLG
HAI activity [3]: 0.63 µg/mL | Neut titer [3]: 0.2 µg/mL | HAI activity [4]: 0.04 µg/mL | Neut titer [4]: < 0.025 µg/mL | HAI activity [5]: > 20 µg/mL | HAI activity [6]: 0.09 µg/mL | Neut titer [6]: 0.0017 µg/mL | HAI activity [7]: 5 µg/mL | Neut titer [7]: 10 µg/mL | HAI activity [8]: 0.32 µg/mL | HAI activity [9]: 0.08 µg/mL | Neut titer [9]: 0.1 µg/mL | HAI activity [10]: > 20 µg/mL | Neut titer [10]: > 20 µg/mL | HAI activity [11]: 0.04 µg/mL | binding result [12]: no binding | OD [13]: 0.078 OD | OD [14]: 0.262 OD

B4: mAb 6J24 (antibody, V domains shown)
VH: EVQLVESGGGLVQPGRSLRLSCVGSGFNFDGYAMQWVRQVPGKGLEWVSGISWHSDSTGYADSVRGRFTISRDNAKNSLYLQMDSLRPEDTAFYYCGKSIGHVGGSYRHPIDYWGQGTLVTVS
VL: DIQLTQSPSSLSASVGDRVTITCRASQGITDYLAWYQQKPGTIPKLLIYAASTLQSGVPSRFSGGGYGTDFTLTISSLQPEDVATYYCQKYNSAPLTFGGGTKVEIKR
OD [15]: 0.072 OD

B5: mAb 3E22 (antibody, V domains shown)
VH: EVQLVESGAEVKKPGASVKVSCKASGYTFSRYYIHWVRQAPGQELEWMGWINPDSGDTNYAQKFRGRVTMARDTSISTVYMELNSLRYDDTAVYFCARIIWSSSGMDVWGQGTTVTVS
VL: QSALTQPASVSGSPGQSITISCTGTSSDVGSYNLVSWYQQHPGKAPKLMIYEVSKRPSGVSNRFSGSKSGNTASLTISGLQAEDEADYYCHLYVGSSNWVFGGGTKLAVLG
OD [16]: 0.379 OD | OD [17]: 0.741 OD
